B1: NIgG4E4A1(G4S)3 (Fc fusion)
chain 1: DVQLQESGGGLVQPGGSLRLSCAASGFRFSNYAMRWYRQAPGKEREFVARISSTGFITRYTASVRDRFTISRDNDKNMMYLQLNKLTPQDTAHYYCNAESTDYWGQGTQVTVSGGGGSGGGGSGGGGSGPPCPPCPAPEFLGGPSVFLFPPKPKDTLMISRTPEVTCVVVDVSQEDPEVQFNWYVDGVEVHNAKTKPREEQFNSTYRVVSVLTVLHQDWLNGKEYKCKVSNKGLPSSIEKTISKAKGQPREPQVYTLPPCQEEMTKNQVSLWCLVKGFYPSDIAVEWESNGQPENNYKTTPPVLDSDGSFFLYSRLTVDKSRWQEGNVFSCSVMHEALHNHYTQKSLSLSLGK
chain 2: EVQLLESGGGLVQPGGSLRLSCAASGFTFGNYDMAWVRQAPGKRPEWVSSIDTGGDITHYADSVKGRFTISRDNAKNTLYLQMNSLRPEDTAVYWCATDEEYALGPNEFDYYGQGTLVTVSSGGGGSGGGGSGGGGSGPPCPPCPAPEFLGGPSVFLFPPKPKDTLMISRTPEVTCVVVDVSQEDPEVQFNWYVDGVEVHNAKTKPREEQFNSTYRVVSVLTVLHQDWLNGKEYKCKVSNKGLPSSIEKTISKAKGQPREPQVCTLPPSQEEMTKNQVSLSCAVKGFYPSDIAVEWESNGQPENNYKTTPPVLDSDGSFFLVSRLTVDKSRWQEGNVFSCSVMHEALHNHYTQKSLSLSLGK
B2: NIgG4E4A1(G4S)1 (Fc fusion)
chain 1: DVQLQESGGGLVQPGGSLRLSCAASGFRFSNYAMRWYRQAPGKEREFVARISSTGFITRYTASVRDRFTISRDNDKNMMYLQLNKLTPQDTAHYYCNAESTDYWGQGTQVTVSGGGGSGPPCPPCPAPEFLGGPSVFLFPPKPKDTLMISRTPEVTCVVVDVSQEDPEVQFNWYVDGVEVHNAKTKPREEQFNSTYRVVSVLTVLHQDWLNGKEYKCKVSNKGLPSSIEKTISKAKGQPREPQVYTLPPCQEEMTKNQVSLWCLVKGFYPSDIAVEWESNGQPENNYKTTPPVLDSDGSFFLYSRLTVDKSRWQEGNVFSCSVMHEALHNHYTQKSLSLSLGK
chain 2: EVQLLESGGGLVQPGGSLRLSCAASGFTFGNYDMAWVRQAPGKRPEWVSSIDTGGDITHYADSVKGRFTISRDNAKNTLYLQMNSLRPEDTAVYWCATDEEYALGPNEFDYYGQGTLVTVSSGGGGSGPPCPPCPAPEFLGGPSVFLFPPKPKDTLMISRTPEVTCVVVDVSQEDPEVQFNWYVDGVEVHNAKTKPREEQFNSTYRVVSVLTVLHQDWLNGKEYKCKVSNKGLPSSIEKTISKAKGQPREPQVCTLPPSQEEMTKNQVSLSCAVKGFYPSDIAVEWESNGQPENNYKTTPPVLDSDGSFFLVSRLTVDKSRWQEGNVFSCSVMHEALHNHYTQKSLSLSLGK
B3: NIgG4E4A1(G4S)2 (Fc fusion)
chain 1: DVQLQESGGGLVQPGGSLRLSCAASGFRFSNYAMRWYRQAPGKEREFVARISSTGFITRYTASVRDRFTISRDNDKNMMYLQLNKLTPQDTAHYYCNAESTDYWGQGTQVTVSGGGGSGGGGSGPPCPPCPAPEFLGGPSVFLFPPKPKDTLMISRTPEVTCVVVDVSQEDPEVQFNWYVDGVEVHNAKTKPREEQFNSTYRVVSVLTVLHQDWLNGKEYKCKVSNKGLPSSIEKTISKAKGQPREPQVYTLPPCQEEMTKNQVSLWCLVKGFYPSDIAVEWESNGQPENNYKTTPPVLDSDGSFFLYSRLTVDKSRWQEGNVFSCSVMHEALHNHYTQKSLSLSLGK
chain 2: EVQLLESGGGLVQPGGSLRLSCAASGFTFGNYDMAWVRQAPGKRPEWVSSIDTGGDITHYADSVKGRFTISRDNAKNTLYLQMNSLRPEDTAVYWCATDEEYALGPNEFDYYGQGTLVTVSSGGGGSGGGGSGPPCPPCPAPEFLGGPSVFLFPPKPKDTLMISRTPEVTCVVVDVSQEDPEVQFNWYVDGVEVHNAKTKPREEQFNSTYRVVSVLTVLHQDWLNGKEYKCKVSNKGLPSSIEKTISKAKGQPREPQVCTLPPSQEEMTKNQVSLSCAVKGFYPSDIAVEWESNGQPENNYKTTPPVLDSDGSFFLVSRLTVDKSRWQEGNVFSCSVMHEALHNHYTQKSLSLSLGK
B4: CIgG4E4A1(G4S)1 (Fc fusion)
chain 1: GPPCPPCPAPEFLGGPSVFLFPPKPKDTLMISRTPEVTCVVVDVSQEDPEVQFNWYVDGVEVHNAKTKPREEQFNSTYRVVSVLTVLHQDWLNGKEYKCKVSNKGLPSSIEKTISKAKGQPREPQVYTLPPCQEEMTKNQVSLWCLVKGFYPSDIAVEWESNGQPENNYKTTPPVLDSDGSFFLYSRLTVDKSRWQEGNVFSCSVMHEALHNHYTQKSLSLSLGKGGGGSDVQLQESGGGLVQPGGSLRLSCAASGFRFSNYAMRWYRQAPGKEREFVARISSTGFITRYTASVRDRFTISRDNDKNMMYLQLNKLTPQDTAHYYCNAESTDYWGQGTQVTVS
chain 2: GPPCPPCPAPEFLGGPSVFLFPPKPKDTLMISRTPEVTCVVVDVSQEDPEVQFNWYVDGVEVHNAKTKPREEQFNSTYRVVSVLTVLHQDWLNGKEYKCKVSNKGLPSSIEKTISKAKGQPREPQVCTLPPSQEEMTKNQVSLSCAVKGFYPSDIAVEWESNGQPENNYKTTPPVLDSDGSFFLVSRLTVDKSRWQEGNVFSCSVMHEALHNHYTQKSLSLSLGKGGGGSEVQLLESGGGLVQPGGSLRLSCAASGFTFGNYDMAWVRQAPGKRPEWVSSIDTGGDITHYADSVKGRFTISRDNAKNTLYLQMNSLRPEDTAVYWCATDEEYALGPNEFDYYGQGTLVTVSS
B5: NIgG4E4A1(RS) (Fc fusion)
chain 1: DVQLQESGGGLVQPGGSLRLSCAASGFRFSNYAMRWYRQAPGKEREFVARISSTGFITRYTASVRDRFTISRDNDKNMMYLQLNKLTPQDTAHYYCNAESTDYWGQGTQVTVSRSGPPCPPCPAPEFLGGPSVFLFPPKPKDTLMISRTPEVTCVVVDVSQEDPEVQFNWYVDGVEVHNAKTKPREEQFNSTYRVVSVLTVLHQDWLNGKEYKCKVSNKGLPSSIEKTISKAKGQPREPQVYTLPPCQEEMTKNQVSLWCLVKGFYPSDIAVEWESNGQPENNYKTTPPVLDSDGSFFLYSRLTVDKSRWQEGNVFSCSVMHEALHNHYTQKSLSLSLGK
chain 2: EVQLLESGGGLVQPGGSLRLSCAASGFTFGNYDMAWVRQAPGKRPEWVSSIDTGGDITHYADSVKGRFTISRDNAKNTLYLQMNSLRPEDTAVYWCATDEEYALGPNEFDYYGQGTLVTVSSRSGPPCPPCPAPEFLGGPSVFLFPPKPKDTLMISRTPEVTCVVVDVSQEDPEVQFNWYVDGVEVHNAKTKPREEQFNSTYRVVSVLTVLHQDWLNGKEYKCKVSNKGLPSSIEKTISKAKGQPREPQVCTLPPSQEEMTKNQVSLSCAVKGFYPSDIAVEWESNGQPENNYKTTPPVLDSDGSFFLVSRLTVDKSRWQEGNVFSCSVMHEALHNHYTQKSLSLSLGK
B6: CIgG4E4A1(G4S)2 (Fc fusion)
chain 1: GPPCPPCPAPEFLGGPSVFLFPPKPKDTLMISRTPEVTCVVVDVSQEDPEVQFNWYVDGVEVHNAKTKPREEQFNSTYRVVSVLTVLHQDWLNGKEYKCKVSNKGLPSSIEKTISKAKGQPREPQVYTLPPCQEEMTKNQVSLWCLVKGFYPSDIAVEWESNGQPENNYKTTPPVLDSDGSFFLYSRLTVDKSRWQEGNVFSCSVMHEALHNHYTQKSLSLSLGKGGGGSGGGGSDVQLQESGGGLVQPGGSLRLSCAASGFRFSNYAMRWYRQAPGKEREFVARISSTGFITRYTASVRDRFTISRDNDKNMMYLQLNKLTPQDTAHYYCNAESTDYWGQGTQVTVS
chain 2: GPPCPPCPAPEFLGGPSVFLFPPKPKDTLMISRTPEVTCVVVDVSQEDPEVQFNWYVDGVEVHNAKTKPREEQFNSTYRVVSVLTVLHQDWLNGKEYKCKVSNKGLPSSIEKTISKAKGQPREPQVCTLPPSQEEMTKNQVSLSCAVKGFYPSDIAVEWESNGQPENNYKTTPPVLDSDGSFFLVSRLTVDKSRWQEGNVFSCSVMHEALHNHYTQKSLSLSLGKGGGGSGGGGSEVQLLESGGGLVQPGGSLRLSCAASGFTFGNYDMAWVRQAPGKRPEWVSSIDTGGDITHYADSVKGRFTISRDNAKNTLYLQMNSLRPEDTAVYWCATDEEYALGPNEFDYYGQGTLVTVSS
B7: CIgG4E3A1(G4S)3 (Fc fusion)
chain 1: GPPCPPCPAPEFLGGPSVFLFPPKPKDTLMISRTPEVTCVVVDVSQEDPEVQFNWYVDGVEVHNAKTKPREEQFNSTYRVVSVLTVLHQDWLNGKEYKCKVSNKGLPSSIEKTISKAKGQPREPQVYTLPPCQEEMTKNQVSLWCLVKGFYPSDIAVEWESNGQPENNYKTTPPVLDSDGSFFLYSRLTVDKSRWQEGNVFSCSVMHEALHNHYTQKSLSLSLGKGGGGSGGGGSGGGGSDVQLQESGGGLVQAGGSLRLACAASGRTLSSYVVSWFRQAPGKERKFVAAITWSGLSTTYLDSVQGRFTISRDNTKDTVYLQMNSLKPQDTAIYYCAAGPNIPSILRTRESEYAYWGQGTQVTVS
chain 2: GPPCPPCPAPEFLGGPSVFLFPPKPKDTLMISRTPEVTCVVVDVSQEDPEVQFNWYVDGVEVHNAKTKPREEQFNSTYRVVSVLTVLHQDWLNGKEYKCKVSNKGLPSSIEKTISKAKGQPREPQVCTLPPSQEEMTKNQVSLSCAVKGFYPSDIAVEWESNGQPENNYKTTPPVLDSDGSFFLVSRLTVDKSRWQEGNVFSCSVMHEALHNHYTQKSLSLSLGKGGGGSGGGGSGGGGSEVQLLESGGGLVQPGGSLRLSCAASGFTFGNYDMAWVRQAPGKRPEWVSSIDTGGDITHYADSVKGRFTISRDNAKNTLYLQMNSLRPEDTAVYWCATDEEYALGPNEFDYYGQGTLVTVSS
B8: CIgG4E4A1(RS) (Fc fusion)
chain 1: GPPCPPCPAPEFLGGPSVFLFPPKPKDTLMISRTPEVTCVVVDVSQEDPEVQFNWYVDGVEVHNAKTKPREEQFNSTYRVVSVLTVLHQDWLNGKEYKCKVSNKGLPSSIEKTISKAKGQPREPQVYTLPPCQEEMTKNQVSLWCLVKGFYPSDIAVEWESNGQPENNYKTTPPVLDSDGSFFLYSRLTVDKSRWQEGNVFSCSVMHEALHNHYTQKSLSLSLGKRSDVQLQESGGGLVQPGGSLRLSCAASGFRFSNYAMRWYRQAPGKEREFVARISSTGFITRYTASVRDRFTISRDNDKNMMYLQLNKLTPQDTAHYYCNAESTDYWGQGTQVTVS
chain 2: GPPCPPCPAPEFLGGPSVFLFPPKPKDTLMISRTPEVTCVVVDVSQEDPEVQFNWYVDGVEVHNAKTKPREEQFNSTYRVVSVLTVLHQDWLNGKEYKCKVSNKGLPSSIEKTISKAKGQPREPQVCTLPPSQEEMTKNQVSLSCAVKGFYPSDIAVEWESNGQPENNYKTTPPVLDSDGSFFLVSRLTVDKSRWQEGNVFSCSVMHEALHNHYTQKSLSLSLGKRSEVQLLESGGGLVQPGGSLRLSCAASGFTFGNYDMAWVRQAPGKRPEWVSSIDTGGDITHYADSVKGRFTISRDNAKNTLYLQMNSLRPEDTAVYWCATDEEYALGPNEFDYYGQGTLVTVSS

In the assay the target is mixture of three Der p 2 specific recombinant human IgE clones H10, H12, P4E (human) (UniProt P01854). As to the kind of experiment: RBL-SX38 IgE displacement, FACS.
mixture of three Der p 2 specific recombinant human IgE clones H10, H12, P4E (human), sequence (P01854 other isoform, or with tags, fused parts or gaps): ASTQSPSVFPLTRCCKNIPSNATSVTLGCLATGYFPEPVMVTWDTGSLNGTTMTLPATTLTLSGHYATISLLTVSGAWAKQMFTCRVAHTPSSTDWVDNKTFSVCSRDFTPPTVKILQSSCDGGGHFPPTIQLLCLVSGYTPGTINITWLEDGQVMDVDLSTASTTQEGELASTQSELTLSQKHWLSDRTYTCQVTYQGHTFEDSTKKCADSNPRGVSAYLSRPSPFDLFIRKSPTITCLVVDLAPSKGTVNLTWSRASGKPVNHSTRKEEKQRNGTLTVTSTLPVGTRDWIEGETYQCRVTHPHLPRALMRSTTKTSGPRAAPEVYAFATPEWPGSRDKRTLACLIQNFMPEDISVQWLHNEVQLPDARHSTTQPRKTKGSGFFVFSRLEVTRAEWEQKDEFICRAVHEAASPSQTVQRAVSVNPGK
For the molecule B1, the EC50 was 0.036 µM and the Max effect/effect 1 µM was found to be 92%.
The corresponding values for B2 are 0.017 µM and 97%.
For B3, the EC50 stood at 0.0164 µM and the Max effect/effect 1 µM was 98%.
As for B4, the 50% effective concentration (EC50) was 0.241 µM and the Max effect/effect 1 µM was determined as 87%.
Take B5: the EC50 is 0.0062 µM and the Max effect/effect 1 µM turned out to be 90%.
On to B6, for which the EC50 is 0.107 µM and the Max effect/effect 1 µM worked out at 94%.
Take B7: the EC50 came out at 0.162 µM and the Max effect/effect 1 µM came to 73%.
Consider B8, for which the Max effect/effect 1 µM was determined as 0%.

What is called EC50 is the concentration giving half of the maximal effect.

The values are drawn from patent publication US20250171562A1.
